Data reported in patent publication US11376333B2, “mTG substrates for covalent conjugation of compounds” (COVALAB, priority 2013, dated 2022).

Experiments:
[1] = biological target: T1, microbial transglutaminase (mTG) (Streptomyces mobaraensis, UniProt P81453); experiment: mTG-mediated incorporation of biotin-X-cadaverine into peptides coupled on Covabtest plate; format: biochemical; details: 15 nmoles peptide coupled to plate, biot-cad 0.1 mg/ml, mTG 10 ng/well
T1 construct: purchased Covalab, France opr 0054
T1 sequence (P81453 77-407): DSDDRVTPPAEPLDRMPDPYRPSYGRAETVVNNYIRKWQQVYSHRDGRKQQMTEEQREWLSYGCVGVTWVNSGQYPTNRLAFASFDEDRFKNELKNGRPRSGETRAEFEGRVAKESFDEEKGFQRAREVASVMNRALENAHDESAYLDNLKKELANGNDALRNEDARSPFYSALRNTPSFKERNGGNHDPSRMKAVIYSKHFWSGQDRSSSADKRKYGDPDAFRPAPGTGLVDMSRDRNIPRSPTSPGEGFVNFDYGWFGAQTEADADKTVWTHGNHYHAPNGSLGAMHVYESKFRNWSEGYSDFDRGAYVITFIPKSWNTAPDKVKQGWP
Method: The coupling method was previously described by the Applicant (V. Thomas et al, 2004) and also in the corresponding data sheet of CovAbtest-Plate™ which is commercially available from Covalab (Ref #opr0004). Briefly, in separate tubes a solution mixture containing 150 μM of each peptide dissolved in 10 mM phosphate buffer pH5, 5 mM EDAC and 5 mM NHS was incubated for 30 min under gentle shaking. The resulting activated NHS-carboxyl C-terminal moiety of each peptide (15 nmoles) was used to be conjugated in each well of CovAbtest-Plate™ previously deprotonated during 15 min with 150 μl 0.6% sodium bicarbonate per well. The microtiter plate was then incubated during 2 hrs at room temperature and washed extensively with Tris Buffer Saline.
For this experiment we used the same procedures described by V Thomas et all (2004) and also in the Covalab's commercialized kit (opr0033). Briefly the Lyophilized transglutaminase was reconstituted in 40 mM tris buffer pH 8 and 50 μl of each mTG at 200 ng/ml and at 40 ng/ml were added in the wells containing 50 μl of biotin-X-cadaverine. The enzymatic mixture was incubated for 15 min at room temperature under gentle shaking. Then the plates were washed 3 times with TBS-Tween20 followed by the addition of 100 μl of diluted HRP labeled streptavidine ( 1/2000 in TBS Tween20, 0.5% BSA) in each well. After 30 min at room temperature and 3 washings in TBS-Tween20, 100 μL of TMB substrate were added and after 5 min the colour development was stopped using 100 μl of 0.5 M sulfuric acid. Absorbances at 450 nm were measured using a microplate reader (Multiskan, Labsystems, Helsinki, Finland).
To screen the peptide library (Covalab) and identify the putative new substrates of mTG we used Covabtest-peptide (described in B-I-1) in which the peptides were covalently coupled into the plates and the amine substrate Biotin-cadeverine (biot-cad) was free in solution. In this experiment 15 nmoles of each peptide (table 2) were covalently conjugated to microtiter plate and the incorporation of biot-cad (0.1 mg/ml) catalyzed by mTG (10 ng/well) was determined following the experiment described in B-II-1. Among all the peptides tested only few peptides were recognized by mTG as Gln (Q) donor to incorporate biot-cad as shown in the FIG. 1. The enzymatic activity was different between the peptide substrates. […] When Q is replaced by N (peptide HH12N11) no reactivity of the mTG was observed confirming the specificity of the enzyme to Gln donor. Moreover, if the reactivity of the 4 peptides (HH12Q11, DH6Q7, HG14Q11 and WG10Q7) is compared, it can be observed that the reactivity of the Gln depends on its position in the peptide sequence. In the most reactive peptides Q is located at the C-terminal. […]

[2] = biological target: T1, microbial transglutaminase (mTG); experiment: mTG incorporation of biot-cad into coated BSA-peptide conjugate, with free-peptide competition; format: biochemical; details: 150 μM free peptide, mTG 100 ng/ml
Method: 2 mg of each peptide was dissolved in 1 ml of deionized water and 150 nmoles were mixed with 0.5 mg BSA solubilized in 50 mM bicarbonate buffer pH9.5. After shaking, glutaraldehyde was added at a final concentration of 0.25% (v/v). The mixtures were kept at room temperature during 16 hrs under gentle shaking. At the end of this incubation time, sodium borohydride was added at a final concentration of 10 mg/ml to stabilize the cross-linking between BSA and the peptides. After 2 hours each mixture of peptide-BSA was dialyzed separately in PBS to remove any free peptides.
High binding 96 wells-microtiter plates (Costar) were used to immobilize BSA-peptide and to human IgG-peptide conjugates prepared as described in M-4 and M-5. For these experiments, conjugates were prepared at 50 μg/ml in 50 mM sodium carbonate buffer pH 9 and 100 μl of each solution was dispensed in the number of wells needed for the experiment. After overnight incubation at 4° C., the plates were washed extensively with Tris Buffer Saline (TBS) and were ready to be used for TG activity.
The same procedure was used as described in B-II-1
In the literature its well known that many proteins are not substrate of transglutaminase even if many glutamine residues are present in their structures (Gorman J J, Folk J E. J Biol Chem. 1984 Jul. 25; 259(14):9007-10). […]

HDLMWPDVYSQH (Peptide HH12Q11)
reactivity as Gln donor for mTG incorporation of biot-cad [1]: good substrate for mTG
effect of added free peptide on mTG reactivity on BSA-HH12Q11 [2]: decreased
